The results in this text go back to patent US20130115213A1.

Where only a bound is given, the exact number is not on record here.

Assay [1] deals with human CD3 (TCR/CD3 complex) on the cell surface (human) (UniProt P07766). Nature of the assay: cell-based or functional assay.
Assay [2] has the same target. Nature of the assay: flow cytometry on CD3+ Jurkat cells, Lineweaver-Burk fit. In general terms: Flow cytometry measures light scatter and fluorescence of single cells or particles in a stream.
The target is the same in assay [3]. Nature of the assay: cell surface retention on CD3+ Jurkat cells at 37 C; ln2/koff.
Assay [4] shares this target. Nature of the assay: cell surface retention on CD3+ Jurkat cells at 37 C; reference scFv10.
For assay [5] the target is unchanged. Nature of the assay: cell surface retention on CD3+ Jurkat cells at 37 C, flow cytometry, one-phase exponential decay fit.

Sequence of UniProt P07766 (P07766 23-207, one chain of several): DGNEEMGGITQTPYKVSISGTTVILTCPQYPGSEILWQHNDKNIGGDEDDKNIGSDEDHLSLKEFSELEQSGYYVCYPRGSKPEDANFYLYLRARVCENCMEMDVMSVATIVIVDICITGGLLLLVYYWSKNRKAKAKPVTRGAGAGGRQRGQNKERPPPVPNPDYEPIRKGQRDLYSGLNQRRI

In general, Kd refers to the constant that tells how readily two partners part at equilibrium. High values mean weaker binding, low ones tighter binding. The term koff denotes the rate constant with which the complex falls apart. Read a low koff as slow dissociation. Take “mAb OKT3 (Orthoclone OKT3, Cilag) (antibody)”: in assay [1], the CD3 modulation (fraction of TCR/CD3 complexes on the surface of T cells that is lost after antibody treatment), PBMC, 24 h was > 90%. The Kd in assay [2] came out at 2.06 nM. The t1/2 in assay [3] amounted to 2.59 min. For the same substance, in assay [4], the fold longer t1/2 against scFv10 is 2.5 fold. Besides, the koff in assay [5] came out at 0.00447 s⁻¹.
